Reference: article doi:10.1101/854133

Molecular target: FANCI-Ub (mono-ubiquitinated at K523);FANCD2-Ub (mono-ubiquitinated at K561) (human;human) (UniProt Q9NVI1+Q9BXW9)
Assay: EMSA
Conditions: nick

Chain of FANCI-Ub (mono-ubiquitinated at K523);FANCD2-Ub (mono-ubiquitinated at K561) (human;human) (Q9NVI1 whole entry, chain 1 of 2): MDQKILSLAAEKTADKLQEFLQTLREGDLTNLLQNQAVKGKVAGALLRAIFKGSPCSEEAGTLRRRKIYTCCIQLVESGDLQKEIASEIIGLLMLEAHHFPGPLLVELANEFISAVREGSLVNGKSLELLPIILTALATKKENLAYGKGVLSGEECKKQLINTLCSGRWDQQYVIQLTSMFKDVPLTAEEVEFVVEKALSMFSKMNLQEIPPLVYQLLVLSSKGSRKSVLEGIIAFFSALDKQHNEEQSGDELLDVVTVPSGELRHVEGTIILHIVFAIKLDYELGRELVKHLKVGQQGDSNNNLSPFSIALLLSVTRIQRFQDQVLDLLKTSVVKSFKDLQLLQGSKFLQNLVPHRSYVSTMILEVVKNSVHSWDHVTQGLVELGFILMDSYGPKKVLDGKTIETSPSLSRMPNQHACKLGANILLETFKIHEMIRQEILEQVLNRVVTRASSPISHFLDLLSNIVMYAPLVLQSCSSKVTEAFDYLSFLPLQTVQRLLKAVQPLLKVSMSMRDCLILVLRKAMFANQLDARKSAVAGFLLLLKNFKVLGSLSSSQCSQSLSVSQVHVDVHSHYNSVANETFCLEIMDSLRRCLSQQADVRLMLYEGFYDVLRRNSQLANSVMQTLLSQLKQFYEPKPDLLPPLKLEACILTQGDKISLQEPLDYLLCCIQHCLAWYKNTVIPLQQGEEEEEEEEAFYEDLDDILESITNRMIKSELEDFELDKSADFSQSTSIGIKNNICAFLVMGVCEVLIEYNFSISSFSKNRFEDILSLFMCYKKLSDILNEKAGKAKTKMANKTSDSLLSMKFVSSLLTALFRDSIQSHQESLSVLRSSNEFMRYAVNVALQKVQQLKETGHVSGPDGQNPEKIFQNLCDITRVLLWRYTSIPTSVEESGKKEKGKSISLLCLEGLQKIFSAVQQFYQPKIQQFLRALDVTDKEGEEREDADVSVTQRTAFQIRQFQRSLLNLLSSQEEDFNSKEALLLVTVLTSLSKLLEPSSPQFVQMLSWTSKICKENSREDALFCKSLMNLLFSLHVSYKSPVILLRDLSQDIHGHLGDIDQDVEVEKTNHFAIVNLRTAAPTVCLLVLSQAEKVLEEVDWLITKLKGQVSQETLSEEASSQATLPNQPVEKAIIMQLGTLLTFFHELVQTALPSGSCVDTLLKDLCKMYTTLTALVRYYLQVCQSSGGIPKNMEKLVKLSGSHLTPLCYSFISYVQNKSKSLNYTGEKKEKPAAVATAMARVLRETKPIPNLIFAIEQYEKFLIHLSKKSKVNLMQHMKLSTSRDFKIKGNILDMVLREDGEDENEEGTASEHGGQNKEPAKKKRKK
Chain of FANCI-Ub (mono-ubiquitinated at K523);FANCD2-Ub (mono-ubiquitinated at K561) (human;human) (Q9BXW9 whole entry, chain 2 of 2): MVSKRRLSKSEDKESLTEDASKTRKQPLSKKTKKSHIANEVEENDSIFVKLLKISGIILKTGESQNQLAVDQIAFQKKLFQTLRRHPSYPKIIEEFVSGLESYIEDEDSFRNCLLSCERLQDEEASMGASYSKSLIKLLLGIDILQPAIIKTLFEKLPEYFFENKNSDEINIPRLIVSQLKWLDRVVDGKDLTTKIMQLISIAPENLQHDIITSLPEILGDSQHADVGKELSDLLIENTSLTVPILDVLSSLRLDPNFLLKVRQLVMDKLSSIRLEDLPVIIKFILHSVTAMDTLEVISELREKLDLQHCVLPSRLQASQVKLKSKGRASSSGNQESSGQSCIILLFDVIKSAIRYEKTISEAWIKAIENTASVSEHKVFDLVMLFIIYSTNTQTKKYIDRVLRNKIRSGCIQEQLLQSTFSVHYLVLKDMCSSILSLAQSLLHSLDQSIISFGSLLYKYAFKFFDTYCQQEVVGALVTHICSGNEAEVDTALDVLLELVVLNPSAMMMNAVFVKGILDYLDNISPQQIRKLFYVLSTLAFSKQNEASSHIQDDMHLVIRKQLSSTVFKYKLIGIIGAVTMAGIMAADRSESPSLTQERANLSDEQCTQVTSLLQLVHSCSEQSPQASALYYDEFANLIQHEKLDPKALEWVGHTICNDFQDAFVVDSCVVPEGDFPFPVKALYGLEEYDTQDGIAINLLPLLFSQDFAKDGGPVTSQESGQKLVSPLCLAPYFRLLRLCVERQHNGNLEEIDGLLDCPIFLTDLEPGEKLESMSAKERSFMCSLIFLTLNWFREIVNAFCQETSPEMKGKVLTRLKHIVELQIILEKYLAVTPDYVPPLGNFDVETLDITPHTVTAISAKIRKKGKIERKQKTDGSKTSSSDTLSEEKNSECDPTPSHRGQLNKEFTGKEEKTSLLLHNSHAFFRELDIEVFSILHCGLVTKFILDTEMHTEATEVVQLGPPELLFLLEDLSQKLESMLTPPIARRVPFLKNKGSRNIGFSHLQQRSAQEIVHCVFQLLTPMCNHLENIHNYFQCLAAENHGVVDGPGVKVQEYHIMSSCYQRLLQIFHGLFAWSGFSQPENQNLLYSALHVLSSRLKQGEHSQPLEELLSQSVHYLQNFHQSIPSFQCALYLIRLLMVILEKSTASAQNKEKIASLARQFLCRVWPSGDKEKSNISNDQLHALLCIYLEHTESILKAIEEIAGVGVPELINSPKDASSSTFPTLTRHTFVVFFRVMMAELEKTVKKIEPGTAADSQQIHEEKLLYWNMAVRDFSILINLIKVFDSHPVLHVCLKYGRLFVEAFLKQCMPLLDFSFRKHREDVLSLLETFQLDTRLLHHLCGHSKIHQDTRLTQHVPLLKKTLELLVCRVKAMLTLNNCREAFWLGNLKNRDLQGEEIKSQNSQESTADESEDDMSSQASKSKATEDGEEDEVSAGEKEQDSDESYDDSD

nicked DNA, EMSA
Kd: 20 nM
